Biological target: chicken MHF complex (MHF1/MHF2 heterotetramer) (chicken) (UniProt E1BSW7)
Assay: native gel or EMSA; 2 mg/ml FANCM–MHF or MHF mixed 1:1 with 10 mM Tris–HCl pH 8 or 10–60% MPD, 20°C for 60 min; 6% polyacrylamide TBE gel, 0.5x TBE, 4°C; bands cut out and analysed by SDS–PAGE; at 30% MPD a smeared band at the position of MHF

“chicken FANCM (MHF interaction region, amino acids 660–804) (from UniProt A0A1D5PRR9 660-804) (domain or fragment)” showed a percent of MHF without FANCM of 3%.
